Experiment in all cases: flow cytometry, soluble tagged antigen staining T cells that carry the construct
Assay [1] has as its target T1, Human PD-1 / PDCD1 Protein, His Tag (ACRO) (human, UniProt Q15116 25-167).
T1 construct: Bought reagent (ACRO); no catalogue number, no construct limits; also called CD279; not shown: His tag

For assay [2], the target named is T2, Human CTLA-4 / CD152 Protein, Fc Tag (ACRO) (human, UniProt P16410 36-161, limits assumed).
T2 construct: Bought reagent (ACRO); no catalogue number, no construct limits; not shown: Fc tag
T2 sequence (looked up): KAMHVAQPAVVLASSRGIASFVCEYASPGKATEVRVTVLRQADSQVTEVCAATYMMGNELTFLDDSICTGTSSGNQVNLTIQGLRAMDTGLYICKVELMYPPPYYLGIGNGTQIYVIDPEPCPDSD

Assay [3] has as its target T3, Human LAG-3 / CD223 Protein, His Tag (ACRO) (human, UniProt P18627 23-450).
T3 construct: Bought reagent (ACRO); no catalogue number, no construct limits; not shown: His tag
T3 sequence (looked up): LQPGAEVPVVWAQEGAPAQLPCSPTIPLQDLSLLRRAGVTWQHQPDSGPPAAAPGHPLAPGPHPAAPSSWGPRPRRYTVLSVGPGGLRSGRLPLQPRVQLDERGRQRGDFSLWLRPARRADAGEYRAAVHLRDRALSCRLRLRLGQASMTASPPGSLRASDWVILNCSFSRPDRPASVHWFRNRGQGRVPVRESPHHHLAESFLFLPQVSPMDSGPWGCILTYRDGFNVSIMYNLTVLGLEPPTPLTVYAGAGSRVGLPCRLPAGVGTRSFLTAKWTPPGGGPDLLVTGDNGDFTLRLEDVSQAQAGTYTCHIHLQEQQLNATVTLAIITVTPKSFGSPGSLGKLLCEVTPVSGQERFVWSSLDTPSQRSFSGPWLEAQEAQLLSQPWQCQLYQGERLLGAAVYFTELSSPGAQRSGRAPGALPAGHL

The source of these data is EP4663762A2 (HongKong Bioheng Biotech Limited, dated 2025).

T1 sequence (Q15116 25-167 limits assumed): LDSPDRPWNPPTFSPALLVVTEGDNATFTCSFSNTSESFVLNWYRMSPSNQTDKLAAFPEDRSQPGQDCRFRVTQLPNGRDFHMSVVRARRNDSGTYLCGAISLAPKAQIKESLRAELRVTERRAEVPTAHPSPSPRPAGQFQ

B1: immunosuppressive molecule of plasmid CAR19-PT3 (anti-PD1 scFv, linker, anti-TIM3 scFv, IgG4 hinge, CD28 transmembrane region, CD28 co-stimulatory domain), on … (other)
chain: QVQLVQSGVEVKKPGASVKVSCKASGYTFTNYYMYWVRQAPGQGLEWMGGINPSNGGTNFNEKFKNRVTLTTDSSTTTAYMELKSLQFDDTAVYYCARRDYRFDMGFDYWGQGTTVTVSSGGGGSGGGGSGGGGSEIVLTQSPATLSLSPGERATLSCRASKGVSTSGYSYLHWYQQKPGQAPRLLIYLASYLESGVPARFSGSGSGTDFTLTISSLEPEDFAVYYCQHSRDLPLTFGGGTKVEIKGGGGSGGGGSGGGGSQVQLVQSGAEVKKPGSSVKVSCKASGYTFTSYNMHWVRQAPGQGLEWMGDIYPGNGDTSYNQKFKGRVTITADKSTSTVYMELSSLRSEDTAVYYCARVGGAFPMDYWGQGTTVTVSSGGGGSGGGGSGGGGSAIQLTQSPSSLSASVGDRVTITCRASESVEYYGTSLMQWYQQKPGKAPKLLIYAASNVESGVPSRFSGSGSGTDFTLTISSLQPEDFATYFCQQSRKDPSTFGGGTKVEIKESKYGPPCPPCPFWVLVVVGGVLACYSLLVTVAFIIFWVRSKRSRLLHSDYMNMTPRRPGPTRKHYQPYAPPRDFAAYRS
notes: Membrane-anchored on transduced T cells that also express the anti-CD19 CAR
Regarding B1, the binding result in assay [1] is reported as “binds”.

B2: immunosuppressive molecule of plasmid CAR19-C4 (anti-CTLA4 scFv, IgG4 hinge, CD28 transmembrane region, CD28 co-stimulatory domain), on CAR19-C4 T cells (other)
chain: QVQLVESGGGVVQPGRSLRLSCAASGFTFSSYGMHWVRQAPGKGLEWVAVIWYDGSNKYYADSVKGRFTISRDNSKNTLYLQMNSLRAEDTAVFYCARAPNYIGAFDVWGQGTMVTVSSGGGGSGGGGSGGGGSDIQMTQSPSSLSASVGDRVTITCRASQGISSWLAWYQQKPEKAPKSLIYAASSLQSGVPSRFSGSGSGTDFTLTISSLQPEDFATYYCQQYNSYPPTFGQGTKVEIKESKYGPPCPPCPFWVLVVVGGVLACYSLLVTVAFIIFWVRSKRSRLLHSDYMNMTPRRPGPTRKHYQPYAPPRDFAAYRS
notes: as for B1
Take B2: in assay [2], the binding result is “binds”.

B3: immunosuppressive molecule of plasmid CAR19-PL3 (anti-PD1 scFv, linker, anti-LAG3 scFv, IgG4 hinge, CD28 transmembrane region, CD28 co-stimulatory domain), on … (other)
chain: QVQLVQSGVEVKKPGASVKVSCKASGYTFTNYYMYWVRQAPGQGLEWMGGINPSNGGTNFNEKFKNRVTLTTDSSTTTAYMELKSLQFDDTAVYYCARRDYRFDMGFDYWGQGTTVTVSSGGGGSGGGGSGGGGSEIVLTQSPATLSLSPGERATLSCRASKGVSTSGYSYLHWYQQKPGQAPRLLIYLASYLESGVPARFSGSGSGTDFTLTISSLEPEDFAVYYCQHSRDLPLTFGGGTKVEIKGGGGSGGGGSGGGGSQVQLQQWGAGLLKPSETLSLTCAVYGGSFSDYYWNWIRQPPGKGLEWIGEINHRGSTNSNPSLKSRVTLSLDTSKNQFSLKLRSVTAADTAVYYCAFGYSDYEYNWFDPWGQGTLVTVSSGGGGSGGGGSGGGGSEIVLTQSPATLSLSPGERATLSCRASQSISSYLAWYQQKPGQAPRLLIYDASNRATGIPARFSGSGSGTDFTLTISSLEPEDFAVYYCQQRSNWPLTFGQGTNLEIKRESKYGPPCPPCPFWVLVVVGGVLACYSLLVTVAFIIFWVRSKRSRLLHSDYMNMTPRRPGPTRKHYQPYAPPRDFAAYRS
notes: as for B1
B3: the binding result in assay [3] and in assay [1] was “binds” in each case.

B4: immunosuppressive molecule of plasmid CAR19-C4L3 (anti-CTLA4 scFv, linker, anti-LAG3 scFv, IgG4 hinge, CD28 transmembrane region, CD28 co-stimulatory domain), … (other)
chain: QVQLVESGGGVVQPGRSLRLSCAASGFTFSSYGMHWVRQAPGKGLEWVAVIWYDGSNKYYADSVKGRFTISRDNSKNTLYLQMNSLRAEDTAVFYCARAPNYIGAFDVWGQGTMVTVSSGGGGSGGGGSGGGGSDIQMTQSPSSLSASVGDRVTITCRASQGISSWLAWYQQKPEKAPKSLIYAASSLQSGVPSRFSGSGSGTDFTLTISSLQPEDFATYYCQQYNSYPPTFGQGTKVEIKGGGGSGGGGSGGGGSQVQLQQWGAGLLKPSETLSLTCAVYGGSFSDYYWNWIRQPPGKGLEWIGEINHRGSTNSNPSLKSRVTLSLDTSKNQFSLKLRSVTAADTAVYYCAFGYSDYEYNWFDPWGQGTLVTVSSGGGGSGGGGSGGGGSEIVLTQSPATLSLSPGERATLSCRASQSISSYLAWYQQKPGQAPRLLIYDASNRATGIPARFSGSGSGTDFTLTISSLEPEDFAVYYCQQRSNWPLTFGQGTNLEIKRESKYGPPCPPCPFWVLVVVGGVLACYSLLVTVAFIIFWVRSKRSRLLHSDYMNMTPRRPGPTRKHYQPYAPPRDFAAYRS
notes: as for B1
For the molecule B4, the binding result in assay [3] and in assay [2] was “binds” throughout.

B5: immunosuppressive molecule of plasmid CAR19-C4T3 (anti-CTLA4 scFv, linker, anti-TIM3 scFv, IgG4 hinge, CD28 transmembrane region, CD28 co-stimulatory domain), … (other)
chain: QVQLVESGGGVVQPGRSLRLSCAASGFTFSSYGMHWVRQAPGKGLEWVAVIWYDGSNKYYADSVKGRFTISRDNSKNTLYLQMNSLRAEDTAVFYCARAPNYIGAFDVWGQGTMVTVSSGGGGSGGGGSGGGGSDIQMTQSPSSLSASVGDRVTITCRASQGISSWLAWYQQKPEKAPKSLIYAASSLQSGVPSRFSGSGSGTDFTLTISSLQPEDFATYYCQQYNSYPPTFGQGTKVEIKGGGGSGGGGSGGGGSQVQLVQSGAEVKKPGSSVKVSCKASGYTFTSYNMHWVRQAPGQGLEWMGDIYPGNGDTSYNQKFKGRVTITADKSTSTVYMELSSLRSEDTAVYYCARVGGAFPMDYWGQGTTVTVSSGGGGSGGGGSGGGGSAIQLTQSPSSLSASVGDRVTITCRASESVEYYGTSLMQWYQQKPGKAPKLLIYAASNVESGVPSRFSGSGSGTDFTLTISSLQPEDFATYFCQQSRKDPSTFGGGTKVEIKESKYGPPCPPCPFWVLVVVGGVLACYSLLVTVAFIIFWVRSKRSRLLHSDYMNMTPRRPGPTRKHYQPYAPPRDFAAYRS
notes: as for B1
For B5, in assay [2], the binding result is recorded as “binds”.

B6: immunosuppressive molecule of plasmid CAR19-PC4 (anti-PD1 scFv, linker, anti-CTLA4 scFv, IgG4 hinge, CD28 transmembrane region, CD28 co-stimulatory domain), on … (other)
chain: QVQLVQSGVEVKKPGASVKVSCKASGYTFTNYYMYWVRQAPGQGLEWMGGINPSNGGTNFNEKFKNRVTLTTDSSTTTAYMELKSLQFDDTAVYYCARRDYRFDMGFDYWGQGTTVTVSSGGGGSGGGGSGGGGSEIVLTQSPATLSLSPGERATLSCRASKGVSTSGYSYLHWYQQKPGQAPRLLIYLASYLESGVPARFSGSGSGTDFTLTISSLEPEDFAVYYCQHSRDLPLTFGGGTKVEIKGGGGSGGGGSGGGGSQVQLVESGGGVVQPGRSLRLSCAASGFTFSSYGMHWVRQAPGKGLEWVAVIWYDGSNKYYADSVKGRFTISRDNSKNTLYLQMNSLRAEDTAVFYCARAPNYIGAFDVWGQGTMVTVSSGGGGSGGGGSGGGGSDIQMTQSPSSLSASVGDRVTITCRASQGISSWLAWYQQKPEKAPKSLIYAASSLQSGVPSRFSGSGSGTDFTLTISSLQPEDFATYYCQQYNSYPPTFGQGTKVEIKESKYGPPCPPCPFWVLVVVGGVLACYSLLVTVAFIIFWVRSKRSRLLHSDYMNMTPRRPGPTRKHYQPYAPPRDFAAYRS
notes: as for B1
As to B6, the binding result in assay [2] and in assay [1] was “binds” in each case.

B7: immunosuppressive molecule of plasmid CAR19-AL3 (anti-NKG2A scFv, linker, anti-LAG3 scFv, IgG4 hinge, CD28 transmembrane region, CD28 co-stimulatory domain), … (other)
chain: EIVLTQSPATLSLSPGERATMTCSASSSVSSYIYWYQQKPGQAPRLLIYLTSNLASGIPARFSGSGSGTDFTLTISSLEPEDFATYYCQQWSGNPYTFGQGTKVEIKGSTSGSGKPGSGEGSTKGEVQLVESGGGLVKPGGSLRLSCAASGFTFSSYAMSWVRQAPGKGLEWVAEISSGGSYTYYPDSVKGRFTISRDNAKNSLYLQMNSLRAEDTAVYYCTRHGDYPRFFDVWGQGTLVTVSSGGGGSGGGGSGGGGSQVQLQQWGAGLLKPSETLSLTCAVYGGSFSDYYWNWIRQPPGKGLEWIGEINHRGSTNSNPSLKSRVTLSLDTSKNQFSLKLRSVTAADTAVYYCAFGYSDYEYNWFDPWGQGTLVTVSSGGGGSGGGGSGGGGSEIVLTQSPATLSLSPGERATLSCRASQSISSYLAWYQQKPGQAPRLLIYDASNRATGIPARFSGSGSGTDFTLTISSLEPEDFAVYYCQQRSNWPLTFGQGTNLEIKRESKYGPPCPPCPFWVLVVVGGVLACYSLLVTVAFIIFWVRSKRSRLLHSDYMNMTPRRPGPTRKHYQPYAPPRDFAAYRS
notes: Membrane-anchored on lentivirally transduced human T cells that also express the anti-CD19 CAR (separated by T2A)
Regarding B7, the binding result in assay [3] is “binds”.
